Test results: article PMC13185593

System: HuR
Assay: SPR
Details: SPR: 25 mM Tris pH 7.5, 100 mM KCl, 7 mM b-mercaptoethanol, 10% glycerol, 25 C, UV crosslinking: 5 mM HEPES pH 7.6, 25 mM KCl, 2 mM MgCl2, 3.8% glycerol

SARS-CoV-2 5'-UTR WT, biotin (SPR)
Kd: 32.5 nM
